Test results taken from the nanobody polyreactivity screen of Harvey et al. (2022).

Assay: yeast display, Sf9 membrane polyspecificity reagent, FACS + sequencing; frameworks hold sequencing errors
Outline: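 Nanobodies came from a synthetic yeast display library in Saccharomyces cerevisiae BJ5465, induced with galactose for 36–48 hours and stained for 1 hour at 4 °C with 10% biotinylated, detergent-solubilized Sf9 membrane reagent. Cells were enriched on streptavidin microbeads and then FACS-sorted, with low and high (top ~1%) gates set on anti-HA fluorescence for expression and streptavidin fluorescence for reagent binding. Each polyreactivity label reflects the gate a clone came from. Genes were amplified by colony PCR, sequenced by MiSeq 2 × 250 and filtered by CDR length.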

For “QVQLVESRGGLVQAGGSLRLSCAASGSTFRRYAMGWYRQAPGKERELVAAITTRGGSTYYADSVKGRFTISRDNAKNTVYLQMNSLKPEDTAVYYCARDYSTYLRTAGDYWGQGTQVTVSS”, which “polyreactivity (PSR sort gate)” value is on record?
The value was “low polyreactivity”.

For “QVQLVESRGGLVQAGGSLRLSCAASGSTFYLNVMGWYIQAPGKERELVAAITYRGGRTSYADSVKGRFTISRDNAKNTVYLQMISLKPEDTAVYYCATPKYYGYYYWGHGTQVTVSS”, which “polyreactivity (PSR sort gate)” value is on record?
Its value is “high polyreactivity”.

For “QVQLVESRGGLVQAGGSLRLSCAASGSTFYRYAMAWYRQAPGKERELVARINTGGSTSYADSVKGRFTISRDNAKNTVYLQMNILKPEDTAVYYCAASSRYAVFGRYYYCGQGTQVTVSS”, which “polyreactivity (PSR sort gate)” value is on record?
The value was “high polyreactivity”.

Which “polyreactivity (PSR sort gate)” value does the source give for “QVQLVESRGGLVQAGGSLRLSCAASGYAMGWYRQAPGKERELVAAITSGGSTNYADSVKGRFTISRDNAKNTVYLQMNSLKPVDTAVYYCAAAYSLYGHRYDYWGQGTQVTVSS” here?
Its value is “high polyreactivity”.

Which “polyreactivity (PSR sort gate)” value does the source give for “QVQLVESRGGLVQAGGSLRLSCAASGYIFGYTVMGWYRQAPGTERELVATITRGGDTNYADSVKGGFTISRDNAKNTVYLQMNSLKPEDSSVYYCAAEPVAYYGSSYGYWGQGTQVTVSS” here?
The value was “low polyreactivity”.

For “QVQLVESRGGLVQAGGSLRLSCAASRSIFNINTMGWYRQAPGKERELVAAISYSGGSTYYADSVKGRFTISRDNAKNTVYLQKNSLKREDTAVYYCNVSPTTSGDGGGYDSWGQGTKVTVSS”, which “polyreactivity (PSR sort gate)” value is on record?
Its value is “low polyreactivity”.

With “QVQLVESRGGLVQAGGSLRLSCAASVSIVGIYVMGRYRQAPGKERELVAGISTRGGSTYYADSVKGRFTIARDNAKNTVYLQMNSLKPEDTAVYYCAVRAWDPYTGKSDYWGQGTQVTVSS” as the sequence, how does the “polyreactivity (PSR sort gate)” value read?
Its value is “low polyreactivity”.

For “QVQLVESRGGLVQAGGSLRLSCPASGYIFYRNAMGWYRQEPGKERELVAAITYTGGRTYYPDSVKGRFTISRDNAKNTVYLQMNSLNPEDTAVYYCNADGRVFVVRPYYDYEYWGQGTQVTVSS”, which “polyreactivity (PSR sort gate)” value is on record?
Its value is “low polyreactivity”.

For “QVQLVESRGGLVQAGGSLRLTCAASGFTFGFYGMGWYRPAPGKERELVARITWRSGSTYYADSVKGRFTISRDNAKNSVYLKLNSLKPEDTAVYSCAADGFSYYVIRFDYWGQGTQVTVSS”, which “polyreactivity (PSR sort gate)” value is on record?
Its value is “low polyreactivity”.

For “QVQLVESRGGLVQAGGSLSLSCAASGRIFYIYDMGWYRQAPGKERELVAAISTSGGSTFYADSVKGRFTISRDNAKNTVYLQMNSLKPEDTAVYYCAARFRYYGSEYDYWGQGTQVSVSS”, which “polyreactivity (PSR sort gate)” value is on record?
The value was “low polyreactivity”.

Which “polyreactivity (PSR sort gate)” value does the source give for “QVQLVESRGGLVQARGSLRLSSAASGRIFSDYAMGCYRQAPGKERDLVATISGGITNYADSVKGRFTISRDNANNTVYLQMNSLKPEDTAVYYCATVDGAYQYTYDYWGEGTQVTVSS” here?
Its value is “low polyreactivity”.

With “QVQLVESRGGLVQEGGSLRLSCAASGRIFSVYAMGSYRQEPGKERELVASISSGGSTYYADSVMWRFTISRDNAKNTVYLQRTSQKAEDTAVYYCAAGYWTTFRSIYDYWGQGTQVTVSS” as the sequence, how does the “polyreactivity (PSR sort gate)” value read?
The value was “low polyreactivity”.

With “QVQLVESRGRLVQAGGTLRLSCAASGNITSVYAMGWYRQAPGNERELVAAISGSGGSTYYADSVKGRFTISRDNAMNTVYLQMNSLKPEDTAVYYCAKGFQYQGNSYGYWGQGSQVTVSS” as the sequence, how does the “polyreactivity (PSR sort gate)” value read?
The value was “low polyreactivity”.

Which “polyreactivity (PSR sort gate)” value does the source give for “QVQLVESRGVLVQAGGSLRLSCAASGYIFAPYAMGWYRPAPGKERELVSAISWRGGSTYYADSVKGRFTISRDNAKITVYLQMNSLKPVDTAVYFCAAQGYGSGLSYYRFDFWGLGTQVTVSS” here?
The value was “high polyreactivity”.

With “QVQLVESRRGLVPAGGSLRLSCARCGITVPAYAMGWYRQAPGKERELVASISRRGGSTYYADSVKGRFTISRDNAKNTVYLQINSLKPVDTAVYYCNADIKQRSDRYDYWGQGTQVTVSS” as the sequence, how does the “polyreactivity (PSR sort gate)” value read?
Its value is “high polyreactivity”.

With “QVQLVESRRGLVQAGGSLRLSCAASGFTFYIYAMGWYRQAPGKERELVAAIIFRGGSTYYADSVKGRFTISRDNAKNTVYLQMNSLKREDTAVYYCAAVPRTYSGYYYWGHGTQVTVSS” as the sequence, how does the “polyreactivity (PSR sort gate)” value read?
Its value is “high polyreactivity”.

Which “polyreactivity (PSR sort gate)” value does the source give for “QVQLVESSGGLVQAGGSLRLSCAASGLTFKRYAMGWYRQAPGKERELVAAINSGGSTNYADSVKGRFTISRDNAKNTVYLQMNSLKPEDTAVYDCAASTSRYYWYALRDYWGQGTQVTVSS” here?
The value was “high polyreactivity”.

With “QVQLVESSGGLVQAGVSLRLSFAASGRIILNYPIGLYRKAPGKERELVAAITSDGSRSYADSVKGRFTISRDNAKNSVYLQMKSLKPEDTAVYYCANDFFEHSRVSHTYSSSKYDYGGQGTQVTVSS” as the sequence, how does the “polyreactivity (PSR sort gate)” value read?
The value was “low polyreactivity”.

For “QVQLVESVGGFVQAGGSLRLSCAASGRTFGRYAMGWYRQAPGKEWELVAAITRSGSSTYYADSVKGRFTISRDNAKNTVYLQMNSMKPEDTAVYYCAALYGPFYSTGEYWGQGTQVTVSS”, which “polyreactivity (PSR sort gate)” value is on record?
Its value is “high polyreactivity”.

Which “polyreactivity (PSR sort gate)” value does the source give for “QVQLVESVGGLDQAGGSLRFICASSAHTISSYAMGWYRQAPGKERELVAAISVSATRTYYADSVKGRFTISRDNAKNTVYLQMSSLNPEDPAVYYFAARPVQFTYGYWGQGTQVTVSS” here?
The value was “high polyreactivity”.

Which “polyreactivity (PSR sort gate)” value does the source give for “QVQLVESVGGLDQAGGSLRLSCAASGFTFDINTMGWYRQEPGKERELVAAITYSGGSTYYADSVKGRFTISRDNAKNTVYLQMNSLKPEDTAVYYCATTWYFVASWYVAIYDYWGQGTQVTVSS” here?
The value was “low polyreactivity”.

With “QVQLVESVGGLDQAGGSLRLSCAASGRIIAWYPMGWYRQSPGKERELVAAISWNGGRTYYADSVKGRFTISRDNAKNTVYLQINSLKPEDTAVYYCAAGKTPQKYGGFNSWGQGTQVTVSS” as the sequence, how does the “polyreactivity (PSR sort gate)” value read?
The value was “high polyreactivity”.

For “QVQLVESVGGLDQAGGTLRLSCAASGSTFKYNGMGWYRQAPGKERELVAAISWRAGSTYADSVKGRFTISRDNAKNTVYLLMYSLKPEDTEVYYCAARLKYWGDYYYWGQGTQVTVSS”, which “polyreactivity (PSR sort gate)” value is on record?
Its value is “low polyreactivity”.

With “QVQLVESVGGLDQAGVSLRLSSAASGSTFGSYVMGWYRQSPGKERELVASISDGGITNYADSVKGRFTISRDNAKNTVYLQMNSLNPEDTAVYYCAAATRPFSDYTTEGYYYWGQGTQVTVSS” as the sequence, how does the “polyreactivity (PSR sort gate)” value read?
The value was “low polyreactivity”.

For “QVQLVESVGGLFQAGGSLRLSCAASGSIFAYNTMGWYRQAPGKEREFVAAISWRGGSTYYADSVKGHFTISGDNAKNTFYLQMNSLKPEDTAVYYCNARYRNTFYSRRYDYWGQGTQVTVSS”, which “polyreactivity (PSR sort gate)” value is on record?
Its value is “low polyreactivity”.

Which “polyreactivity (PSR sort gate)” value does the source give for “QVQLVESVGGLGQAGGSLRLSCAASGYIFRPDAMGWYRQEPGKERELVAVISSGGSTYYADSVKGRFTISRDNAKNTVYLQMNSLKPEDTAVYYCNRTLPSIGGTTYEYWRQGTQVTVSS” here?
The value was “low polyreactivity”.

For “QVQLVESVGGLVKAGGSLRLSCAASGFIFYRYTMGWYRQDPGKERELVAGISSRGTRTYYADSVKGRFTISRDNAKNTVYLQMNSLKPEDTAVYYCAAVLTQPKKVNYWGQGTQVTVSS”, which “polyreactivity (PSR sort gate)” value is on record?
The value was “high polyreactivity”.

For “QVQLVESVGGLVQAGASHRLSCAASGLNFFKYTMGWYIQAPGKERELVAAISRRGGSTYYADSVKGRFTISRDNAKNTVYLQMNSLKPDDTAVYYCNKRLGTGYYYGYDYWGQGTQVTGSS”, which “polyreactivity (PSR sort gate)” value is on record?
Its value is “high polyreactivity”.

With “QVQLVESVGGLVQAGASLRLSCAASGGTFPVYAMGWYRQAPGKEREMVAAISYSGVTTYYADSVKGRFTISRDNAKNTVYLQMNSLKPDDTAVYYCNADWRRWYIFSYDYWGQGTLVTVSS” as the sequence, how does the “polyreactivity (PSR sort gate)” value read?
The value was “low polyreactivity”.

Which “polyreactivity (PSR sort gate)” value does the source give for “QVQLVESVGGLVQAGASLRLSCAASGITFVYYALGWYRQAPGKERELVAAITSTGGSTYYADSVKGRFTISRDNAKNTVYLQMNSLKPEDTSVYYCAAVPRGTQGAMDYWGQGTQVTVSS” here?
Its value is “low polyreactivity”.

Which “polyreactivity (PSR sort gate)” value does the source give for “QVQLVESVGGLVQAGGNLRLSCAASGIIFSRYALGWYRQAPGKERELVAAITRSGGDTYYADSVKGRFTISRDHAKNTVYLQMNSLKPEDTAVYYCAADRTWYPWVATGYYWGHGTQVTVSS” here?
The value was “low polyreactivity”.

For “QVQLVESVGGLVQAGGRLRLSCAASGFIFYEYAMGWYRQAPGKERELDPAITSGGSTDYADSVKGLFTISRDNAKNTVYLQMNSLKPEDTAVYYCNADLFTGYYWYNYCGQGTQVTVSS”, which “polyreactivity (PSR sort gate)” value is on record?
Its value is “low polyreactivity”.

With “QVQLVESVGGLVQAGGSHRLSCAASGSIFYYYDMGWYRQGPGKERELFAAINRGVGSTFYADSVKGRFTISRENAKNTVYLQMNSLKPEDTAVDYCSSRWYSRTRAYNYWGQGTQVTVSS” as the sequence, how does the “polyreactivity (PSR sort gate)” value read?
The value was “low polyreactivity”.

With “QVQLVESVGGLVQAGGSLLLSCAASGGIFWVYAMGWYRQAPGKERELVAAISNSDTSTSYADSVKGRFTISRDNAKNTVFLQMNSLKPEDTAVYYCNADSPSLSGDYWGQGTQVTVSS” as the sequence, how does the “polyreactivity (PSR sort gate)” value read?
Its value is “low polyreactivity”.

For “QVQLVESVGGLVQAGGSLPLSGAASGSILGFNAMGWSRQAPGKDRELVASITTSGGSTYFADSVKGRFTISRDNAKNTVYLQMNSLKPEDTAVYYCAAYRRYQFVTYYYWGQGTQVTVSS”, which “polyreactivity (PSR sort gate)” value is on record?
The value was “high polyreactivity”.

For “QVQLVESVGGLVQAGGSLRFTCAASGGTFRVNAMGWYRQAPGKEREFVAAISGSGSSTYYADSVKGRFTISRDNAKNTVYLQMNSLKPEDTAVYYCAARSGVGGDNDYWGQGTQVTVSS”, which “polyreactivity (PSR sort gate)” value is on record?
Its value is “low polyreactivity”.

For “QVQLVESVGGLVQAGGSLRIICAASGITLAWYSMGWYRKAPGKERELVASISSSGSTNYADSVKGRFTISRDNAKNTVYLQMNSLIPEETAVYYCNKDYLLLHYYIYVIEGDYWGQGTQVTVSS”, which “polyreactivity (PSR sort gate)” value is on record?
Its value is “low polyreactivity”.

With “QVQLVESVGGLVQAGGSLRISCAASGFIFEVYAMGWYRQAPGKERELIAAIRWSGTSTYYAYSVKGRFTISRDNAKNTFYLQMNSLKPEDTAVYYCAADSWDWHIGGEDYWGQGTQVTVSS” as the sequence, how does the “polyreactivity (PSR sort gate)” value read?
Its value is “low polyreactivity”.

For “QVQLVESVGGLVQAGGSLRISCAASGSIFAINAMGWYRQAPVKERELVAAIRTAGRTYYADSVKGRFTISRDNAKNTVYLQMNSLKPEDSSVYDCNDGGKWIGSDYWGQGTQVTVSS”, which “polyreactivity (PSR sort gate)” value is on record?
Its value is “high polyreactivity”.

Which “polyreactivity (PSR sort gate)” value does the source give for “QVQLVESVGGLVQAGGSLRLICAASGSTFNWYAMGWYRQAPGKERDLVADITWRDGSTYYADSVKGRFTISRDNAKNTVYLQMNSLKPDDPAVYYCADDYTYWGIFFGYWGQGTQVTVSS” here?
Its value is “high polyreactivity”.

For “QVQLVESVGGLVQAGGSLRLSCAAAGRTFTLYAMGWYRQATGKERELVAAIRWSGSSTYSADSVKGRFTISRDNAKNTVYLQMNSLKPEDTAVYACDARAGRYDRYGYWGQGTQVSVSS”, which “polyreactivity (PSR sort gate)” value is on record?
The value was “high polyreactivity”.
